B1: otlertuzumab (antibody, chains of the INN, looked up, V domains shown)
VH: EVQLVQSGAEVKKPGESLKISCKGSGYSFTGYNMNWVRQMPGKGLEWMGNIDPYYGGTTYNRKFKGQVTISADKSISTAYLQWSSLKASDTAMYYCARSVGPFDSWGQGTLVTVSS
VL: EIVLTQSPATLSLSPGERATLSCRASENVYSYLAWYQQKPGQAPRLLIYFAKTLAEGIPARFSGSGSGTDFTLTISSLEPEDFAVYYCQHHSDNPWTFGQGTKVEIK

Assay: Asn-Pro hydrolysis in unstructured linear peptide mimics of CDR-L3 at accelerated temperature
Type: physicochemical
Details: pH 7.4, 90° C.
Method: To examine the effect of antibody structure on the rate of Asn-Pro hydrolysis, thermal stress was performed on unstructured, linear peptides representing the CDR-L3 sequence of Fab1 and Mab3. Since it had been previously shown that the rate of hydrolysis in unstructured peptides incubated at 37° C. was slow, accelerated temperature conditions (90 and 70° C.) were performed and the temperature dependence extrapolated to calculate the rate at 37° C. Very slow rates of peptide hydrolysis (Table 2), with half-lives calculated for 37° C. of greater than 2000 days, were observed. As expected, the rate of hydrolysis was slower, by about 3-fold, for incubations performed in pH 5 buffer.

Row | Molecule | % Pro peak formation/day at 90° C.
1 | Fab1: peptide mimic of Fab1 CDR-L3 segment, QQWSSNPWTFGQ | 1.0 % Pro peak formation/day
2 | Fab2: peptide mimic of Fab2 CDR-L3 segment, QQGYGNPFTFGQ | 2.9 % Pro peak formation/day
3 | Mab3: peptide mimic of Mab3 CDR-L3 segment, QQWSSNPYTFGQ | 2.9 % Pro peak formation/day
4 | Mab4: peptide mimic of Mab4 CDR-L3 segment, QQGINNPLTFGQ | 1.9 % Pro peak formation/day

Assay: Neutral pH 37 C stability of commercial antibodies, fragmentation by mass spectroscopy and CE-SDS
Type: physicochemical
Details: PBS pH 7.4, up to 4 weeks at 37° C.
Method: In addition to the data shown for Mab5 in Table 1 and FIG. 9, neutral pH, 37 C stability data was generated for all except muromonab, teplizumab, tovetumab, and visilizumab. Antibodies formulated in PBS, pH 7.4, were incubated for up to 4 weeks at 37° C. and evidence for fragmentation was obtained by mass spectroscopy and capillary electrophoresis sodium dodecyl sulfate (CE-SDS) for both intact and reduced samples.

Row | Molecule | Light chain fragment observed? (hydrolysis at Asn-Pro in CDR-L3)
5 | veltuzumab [reference compound] | detected and Yes
6 | B1 | not and No

— patent US20230120018A1, “PREDICTION OF PEPTIDE CLEAVAGE IN POLYPEPTIDES THROUGH PHYSICS-BASED SIMULATIONS” (Genentech, Inc., priority 2020, published 2023)
